Tests used:
Test in all cases: crystal structure
[1] = biological target: recombinant C-terminal StrepII-tagged SbtB from Synechocystis sp. PCC 6803 (ScSbtB), wild type (Synechocystis sp. PCC 6803)
[2] = biological target: recombinant C-terminal StrepII-tagged ScSbtB variant Δ104 (R-loop truncated from position 104 on) (Synechocystis sp. PCC 6803)
[3] = biological target: recombinant C-terminal StrepII-tagged ScSbtB variant C105A+C110A (Synechocystis sp. PCC 6803)

recombinant C-terminal StrepII-tagged SbtB from Synechocystis sp. PCC 6803 (ScSbtB), wild type (natural protein)
stoichiometry N [1]: 3

recombinant C-terminal StrepII-tagged ScSbtB variant Δ104 (R-loop truncated from position 104 on) (domain or fragment)
stoichiometry N [2]: 3

recombinant C-terminal StrepII-tagged ScSbtB variant C105A+C110A (natural protein)
stoichiometry N [3]: 3

From article PMC9974498
